Measurements taken from the supplement of paper PMC7877785.
± gives the uncertainty stated by the source.

Experiment: self-splicing fitness, log relative to wild type (ln ratio); higher = more splicing; Tetrahymena group I intron in knt gene, E. coli kanamycin selection, DiMSum; sequences stand for … in CUCUCU…GGAGGGAAAAGUUAUCAGGCAUGCACCUGGUAGCUAGUCUUUAAACCAAUAGAUUGCAUCGGUUUAAAAGGCAAGACCGUCAAAUUGCGGGAAAGGGGUCAACAGCCGUUCAGUACCAAGUCUCAGGGGAAACUUUGAGAUGGCCUUGCAAAGGGUAUGGUAAUAAGCUGACGGACAUGGUCCUAACCACGCAGCCAAGUCCUAAGUCAACAGAUCUUCUGUUGAUAUGGAUGCAGUUCACAGACUAAAUGUCGGUCGGGGAAGAUGUAUUCUUCUCAUAAGAUAUAGUCGGACCUCUCCUUAAUGGGAGCUAGCGGAUGAAGUGAUGCAACACUGGAGCCGCUGGGAACUAAUUUGUAUGCGAAAGUAUAUUGAUUAGUUUUGGAGUACUCGUGGUCG
How it was run: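 A randomised library covering all eight P1ex-region intron nucleotides was built with the intron in the knt kanamycin-resistance gene on pET-22b(+) and held in E. coli BL21(DE3). Cells were grown overnight at 37°C or 30°C on LB agar, with or without 25 μg/mL kanamycin, plus 100 μg/mL carbenicillin, 50 μM IPTG and 0.2% rhamnose, and pooled colonies were amplicon-sequenced on an Illumina HiSeq 2500. DiMSum fitness is the error-weighted combination of wild-type-normalised replicate fold changes, kanamycin versus none.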

| Sequence | self-splicing fitness (ln) (30 °C) | self-splicing fitness (ln) (37 °C) |
| --- | --- | --- |
| GCGAAGCAAUAUUACGUAUG | -4.39 ± 0.26 | -2.81 ± 0.16 |
| GCGAAGCAAUAUUACGUCAU | -2.72 ± 0.15 | -1.65 ± 0.14 |
| GCGAAGCAAUAUUACGUCCU | -0.0766 ± 0.14 | 0.569 ± 0.17 |
| GCGAAGCAAUAUUACGUUAU | -2.2 ± 0.1 | -1.86 ± 0.11 |
| GCGCAGCAAUAUUACGAAAA | -1.92 ± 0.21 | -1.7 ± 0.21 |
| GCGCAGCAAUAUUACGAAUG | -1.52 ± 0.13 | -0.961 ± 0.14 |
| GCGCAGCAAUAUUACGAGGU | -2.49 ± 0.2 | -1.24 ± 0.25 |
| GCGCAGCAAUAUUACGAUGC | -2.63 ± 0.17 | -0.824 ± 0.17 |
| GCGCAGCAAUAUUACGAUUG | -2.57 ± 0.073 | -1.28 ± 0.1 |
| GCGCAGCAAUAUUACGCAAC | -1.79 ± 0.14 | -0.576 ± 0.18 |
| GCGCAGCAAUAUUACGCCGC | -2.28 ± 0.35 | -1.44 ± 0.49 |
| GCGCAGCAAUAUUACGCCGG | -2.75 ± 0.25 | -1.57 ± 0.31 |
| GCGCAGCAAUAUUACGCGAU |  | -2.14 ± 0.3 |
| GCGCAGCAAUAUUACGCGGU | -3.82 ± 0.28 | -2.25 ± 0.22 |
| GCGCAGCAAUAUUACGGACC | -1.03 ± 0.24 | 0.344 ± 0.38 |
| GCGCAGCAAUAUUACGGCGG | -2.48 ± 0.13 | -1.28 ± 0.15 |
| GCGCAGCAAUAUUACGGGAU | -1.66 ± 0.1 | -1.09 ± 0.12 |
| GCGCAGCAAUAUUACGUCAG | -2.03 ± 0.14 | -2.23 ± 0.18 |
| GCGCAGCAAUAUUACGUCAU | -1.65 ± 0.084 | -0.91 ± 0.086 |
| GCGCAGCAAUAUUACGUGGA | -1.48 ± 0.098 | -0.745 ± 0.098 |
| GCGCAGCAAUAUUACGUUUA | -1.01 ± 0.1 | -0.423 ± 0.1 |
| GCGGAGCAAUAUUACGAAAC | -3.16 ± 0.31 | -0.996 ± 0.24 |
| GCGGAGCAAUAUUACGAAAU | -2.94 ± 0.5 | -1.23 ± 0.42 |
| GCGGAGCAAUAUUACGACAA | -1.13 ± 0.23 | -1.7 ± 0.29 |
| GCGGAGCAAUAUUACGAGGU | -4.1 ± 0.46 |  |
| GCGGAGCAAUAUUACGAUAC | -1.78 ± 0.18 | -2.35 ± 0.33 |
| GCGGAGCAAUAUUACGAUCU | -1.97 ± 0.25 | -0.0473 ± 0.33 |

| Sequence | self-splicing fitness (ln) (30 °C) | self-splicing fitness (ln) (37 °C) |
| --- | --- | --- |
| GCGGAGCAAUAUUACGAUGA | -3.1 ± 0.23 | -2.23 ± 0.26 |
| GCGGAGCAAUAUUACGAUGU | -2.73 ± 0.26 | -1.02 ± 0.22 |
| GCGGAGCAAUAUUACGAUUU | -2.22 ± 0.14 | -0.641 ± 0.14 |
| GCGGAGCAAUAUUACGCAUG |  | -2.8 ± 0.44 |
| GCGGAGCAAUAUUACGCCAG | -2.22 ± 0.42 | -2.26 ± 0.42 |
| GCGGAGCAAUAUUACGCCCG | -1.19 ± 0.5 |  |
| GCGGAGCAAUAUUACGCGAU | -2.58 ± 0.33 | -2.18 ± 0.36 |
| GCGGAGCAAUAUUACGCGGG | -3.35 ± 0.38 | -1.2 ± 0.24 |
| GCGGAGCAAUAUUACGGAGU | -2.51 ± 0.33 | -2.1 ± 0.29 |
| GCGGAGCAAUAUUACGGCGG | -3.3 ± 0.3 | -2.6 ± 0.32 |
| GCGGAGCAAUAUUACGGGGC | -2.48 ± 0.48 | -1.65 ± 0.35 |
| GCGGAGCAAUAUUACGGGUG |  | -1.36 ± 0.34 |
| GCGGAGCAAUAUUACGGUAC |  | -2.04 ± 0.36 |
| GCGGAGCAAUAUUACGGUCA | -2.75 ± 0.17 | -1.04 ± 0.13 |
| GCGGAGCAAUAUUACGGUUG | -3.64 ± 0.2 | -1.78 ± 0.18 |
| GCGGAGCAAUAUUACGUAAA | -3.53 ± 0.31 | -1.97 ± 0.35 |
| GCGGAGCAAUAUUACGUAGA | -3.84 ± 0.43 | -2.24 ± 0.35 |
| GCGGAGCAAUAUUACGUGCG | -3.79 ± 0.35 | -2.55 ± 0.27 |
| GCGUAGCAAUAUUACGAACA | -0.46 ± 0.22 | -0.256 ± 0.24 |
| GCGUAGCAAUAUUACGAAUA | -0.7 ± 0.12 | -1.13 ± 0.11 |
| GCGUAGCAAUAUUACGACAU | -0.276 ± 0.014 | -0.025 ± 0.033 |
| GCGUAGCAAUAUUACGAGGA | -1.09 ± 0.42 |  |
| GCGUAGCAAUAUUACGAUAU | -0.111 ± 0.081 | -0.357 ± 0.1 |
| GCGUAGCAAUAUUACGAUGG | -1.91 ± 0.17 | -2.82 ± 0.31 |
| GCGUAGCAAUAUUACGCAUA | -3.49 ± 0.2 | -2.17 ± 0.21 |
| GCGUAGCAAUAUUACGCGCC | -2.51 ± 0.35 | -1.51 ± 0.45 |
| GCGUAGCAAUAUUACGCGUA | -2.83 ± 0.46 | -2.3 ± 0.37 |

| Sequence | self-splicing fitness (ln) (30 °C) | self-splicing fitness (ln) (37 °C) |
| --- | --- | --- |
| GCGUAGCAAUAUUACGCUUG |  | -2.26 ± 0.33 |
| GCGUAGCAAUAUUACGGAAU | -2.67 ± 0.33 | -0.8 ± 0.2 |
| GCGUAGCAAUAUUACGGCUC | 0.371 ± 0.11 | 0.776 ± 0.12 |
| GCGUAGCAAUAUUACGGCUG | -3.74 ± 0.42 | -1.39 ± 0.49 |
| GCGUAGCAAUAUUACGGGAC | -2.1 ± 0.15 | -2.17 ± 0.2 |
| GCGUAGCAAUAUUACGGGCC | -3.1 ± 0.32 |  |
| GCGUAGCAAUAUUACGGGGC | -3.47 ± 0.21 | -2.67 ± 0.24 |
| GCGUAGCAAUAUUACGGGGG | -3.87 ± 0.21 | -1.78 ± 0.17 |
| GCGUAGCAAUAUUACGGGUG | -1.55 ± 0.08 | -1.46 ± 0.091 |
| GCGUAGCAAUAUUACGGUAA | -1.02 ± 0.13 | -0.178 ± 0.1 |
| GCGUAGCAAUAUUACGUAAA | -0.977 ± 0.21 | -1.1 ± 0.25 |
| GCGUAGCAAUAUUACGUACG | -3.93 ± 0.18 | -2.88 ± 0.17 |
| GCGUAGCAAUAUUACGUCUC |  | -2.6 ± 0.39 |
| GCGUAGCAAUAUUACGUGUG | -4.47 ± 0.42 | -2.77 ± 0.2 |
| GCGUAGCAAUAUUACGUGUU | -3.07 ± 0.21 | -0.761 ± 0.12 |
| GCGUAGCAAUAUUACGUUAG | -3.92 ± 0.22 | -2.47 ± 0.23 |
| GCGUAGCAAUAUUACGUUCG | -1.48 ± 0.33 | -1.52 ± 0.32 |
| GCUAAGCAAUAUUACGAACA | -1.65 ± 0.2 | -0.907 ± 0.27 |
| GCUAAGCAAUAUUACGAAUA | -2.16 ± 0.21 | -1.73 ± 0.24 |
| GCUAAGCAAUAUUACGACCA | -2.09 ± 0.21 | -1.34 ± 0.26 |
| GCUAAGCAAUAUUACGAGAA | -0.77 ± 0.47 | -1.64 ± 0.31 |
| GCUAAGCAAUAUUACGAGAC | -2.13 ± 0.13 | -0.763 ± 0.14 |
| GCUAAGCAAUAUUACGAUUA | -1.63 ± 0.22 | -0.39 ± 0.18 |
| GCUAAGCAAUAUUACGCACC | -0.869 ± 0.11 | 0.0219 ± 0.14 |
| GCUAAGCAAUAUUACGCAGG | -2.8 ± 0.26 | -3.55 ± 0.39 |
